Values joined by “and” are separate entries in the source; they are usually repeats but may differ in a detail not shown here. Equal entries are not always repeated.
T1: recombinant human RNF43 extracellular domain (human, UniProt Q68DV7 24-197)
T1 construct: extracellular domain; also called huRNF43; human RNF43 ECD
T1 sequence (looked up): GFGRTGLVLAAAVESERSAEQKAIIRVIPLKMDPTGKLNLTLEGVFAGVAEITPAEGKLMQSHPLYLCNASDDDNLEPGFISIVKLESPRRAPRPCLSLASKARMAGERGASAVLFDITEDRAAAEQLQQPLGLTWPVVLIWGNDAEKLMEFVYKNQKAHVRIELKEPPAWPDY


Target: T1, recombinant human RNF43 extracellular …
Experiment: SPR Biacore 8K; antibody captured on Protein A; RNF43 ECD analyte; 25 C
Description: Antibodies were screened for binding to recombinant human RNF43 and ZNRF3 ECDs using a Biacore® 8 k instrument (GE Life Sciences). Briefly, antibodies diluted to 1 μg/ml in 1×HBSP buffer (Cytiva, BR100368) were captured on a Sensor Chip Protein A (GE Life Sciences) using a flow rate of 10 μl/minute and a contact time of 60 seconds. Binding of recombinant human RNF43 and ZNRF3 extracellular domain to the captured antibodies was analyzed at 25° C. using a single cycle kinetics method with a flow rate of 30 μl/minute, a contact time of 180 seconds and a dissociation time of 600 seconds. The concentration of recombinant human RNF43 and ZNRF3 extracellular domain in the single cycle kinetics were 0, 0.8, 4, 20, and 100 nM. Between cycles, the chip was regenerated using 10 mM Glycine HCl pH 1.5 injected for 30 seconds at 30 μl/minute. Data were evaluated using Biacore 8K Evaluation software (GE Life Sciences). Kinetic constants were obtained using a 1:1 binding model with the parameter RI set to zero. Cell surface ligase antibodies with sub-nanomolar affinities may provide advantages in certain instances, for example, in the degradation efficiency which is correlated with the durability of the ternary complex as shown in FIG. 5D.

Row | Binder | Kd
1 | RNF43-104 (antibody, V domains shown, Rat clone; VH/VL only) VH: QVQLKESGPGLVQPSQTLSLTCSVSGFSLTSFHVHWVRQPPGKGLEWMGLMWSNGDTSYNSDLKSRLSISRDTSKSQVFLKMHSLQTEDTATYYCARTDVYHGFGAMDAWGQGTSVTVSS VL: DIQMTQSPSFLSASLGNSITITCHASQFIKGWLAWYQQKSGNAPELLIYKSSSLHSGVPSRFSGSGSGTDYILTISNLQPEDIATYYCQHYQGFPLTFGSGTKLEIK | 9120 pM
2 | RNF43-61 (antibody, V domains shown, Rat clone; VH/VL only) VH: EVQLVESGGDLVQPGRSLTLSCAASGFIFSDYYMAWVRQAPKKGLEWVASITYEGSSTYYGDSVKGRFTISRDNTKSTLYLLMNSLRSDDSATYYCARHGAHYTYNYAYYFDYWGQGVMVTVSS VL: DIMLTQSPTTLSVIPGENISLSCRASQSVGTNLHWYQQKPSESPRVLINYASQSISGIPSRFSGSGSGTDFTLNINRVEPEDSSVYYCQQSKSWPFTFGSGTKLEIK | 430 pM
3 | RNF43-74 (antibody, V domains shown, Rat clone; VH/VL only) VH: EVQLVESGGDLVQPGRSLTLSCAASGFTFSDYYMAWVRQAPKKGLEWVASITYEGSSTYYGDSVKGRFTISRDNTKSTLYLLMNSLRSDDTATYYCARHGAHYTYNYAYYFDYWGQGVMVTVSS VL: DIMLTQSPTTLSVIPGENISLSCRASQSVGTNLHWYQQKPSESPRVLINYASQSISGIPSRFSGSGSGTDFTLNINRVEPEDSSVYYCQQSKSWPFTFGSGTKLEIK | 350 pM
4 | RNF43-116 (antibody, V domains shown, Rat clone; VH/VL only) VH: QVQLQQSGAELAKPGSSVKISCKASGYTFTSYYISWIKQTTGQDLEYIGYVNTRSGGTNYNEKFKVKATLTVDNSSSTAFMQLSSLTPDDSAVYYCARGRTDWGQGTLVTVSS VL: DIQMTQSPSLLSASVGDRVTVNCKASQNIYKNLEWYQQKHGEAPKLLIYYTNNLQTGISSRFSGSGSGTDYTLTISSLQPEDVATYYCFQYNSGYTFGAGTKLELK | 1420 pM
5 | RNF43-71 (antibody, V domains shown, Rat clone; VH/VL only) VH: QVKLLQSGAALVKPGDSVKMSCKASGYTFTDHIIHWVKQSHGKSLEWIGYINPYSGSTNYNEKFKSKATLTVDRSNNTAYMEFSRLTSEDSAIYYCARKNYGGYGVMDAWGQGASVTVSS VL: DIQMTQSPSLLSASVGDRVTLSCKASQNIYKNLAWHQQKLGEAPKLLIYYANSLQTGIPSRFSGSGFGTDYTLTISSLQPEDVATYFCQQSSSGWTFGGGTKLELK | 30 pM
6 | RNF43-31 (antibody, V domains shown, Rat clone; VH/VL only) VH: AVQLVESGGGSVQPGRSMRLSCAASGFTFSNYDMTWVRQAPTKGLEWVASITYDGGSTYSRDSVKGRFTISRDNAKSTLYLQMDSLRSEDTATYYCTTDRGRYLPYYFDYWGQGVMVTVSA VL: DVVLTQTPVSLSVTLGDQASISCRSSQSLEYSDGYSYLEWYLQKPGQSPQLLIYEVSSRFSGVPDRFIGSGSGTDFTLKISRVEPEDLGVYYCFQAIHDPTFGAGTKLELK | 130 pM
7 | RNF43-41 (antibody, V domains shown, Rat clone; VH/VL only) VH: EVHLVESGGGLVQPGRSVKLSCTASGFTFSYYDMAWVRQAPTKGLEWVASLTYDGSSTYYRDSVKGRFTISRDNAKSTLYLQMDSLRSEDTATYYCTTDRGRYLPYHFDYWGQGVMVTVSS VL: DVVLTQTPVSLSVTLGDQASISCRSSQSLEYSDGYTYLEWYLQKPGQSPQLLIYEVSTRFSGVPDRFIGSGSGTDFTLKISRVEPEDLGVYYCFQATHDPTFGAGTKLELK | 370 pM
8 | RNF43-67 (antibody, V domains shown, Rat clone; VH/VL only) VH: AVQLVESGGGSVQPGRSMRLSCAASGFTFSNYDMTWVRQAPTKGLEWVASITSDGGSTYSRDSVKGRFTISRDNAKSTLYLQMDSLRSEDTATYYCTTDRGRYLPYYFDYWGQGVMVTVSA VL: DVVLTQTPVSLSVTVGDQASISCRSSQSLEYSDGYSYLEWYLQKPGQSPQLLIYEVSSRFSGVPDRFIGSGSGTDFTLKISRVEPEDLGVYYCFQAIHDPTFGAGTKLELK | 590 pM
9 | RNF43-130 (antibody, V domains shown, Rat clone; VH/VL only) VH: QVQLVQSGAEVVKPGSSVKISCKASGYTFTGNFIHWIKQQPGNGLEWIGWIYPGDGDTTYNQKFSGKATLTADKSSSTAYMQLSNLTSEDSAVYFCAKWRDLSSDWFAYWGQGTLVTVSS VL: DIVMTQSPVSLTVSEGEMVTINCKSSQSLLSSGNQKNYLAWYQQKPGQSPRLLIYFTSTRQSGVPDRFIGSGSGTDFTLTISDVQAEDLADYYCLQHYSYPNTFGAGTKLELK | 134 pM
10 | RNF43-145 (antibody, V domains shown, Rat clone; VH/VL only) VH: EVQLKESGPGLVQPSQTLSLTCTVSGFSLTDYSVYWVRQPPGKGLEWMGVMWSGGTTAYNSALKSRLSISRDTSKSQVFLKMNSLQTEDTAIYYCTRGGKYDGTYYYGWYFDFWGPGTMVTVSS VL: DVVLTQSPATLSVTPGERISLSCRASESVDTYLYWYQQKPNESPRLLIKYASQSISGIPSRFSGSGSGTDFTLSINGVELEDLSIYYCQQGNSLPLTFGSGTKLEIK | 504 pM
11 | RNF43-136 (antibody, V domains shown, Rat clone; VH/VL only) VH: QVQLQQSGAELVKPGSSVKISCKASGYTFTSKFMHWIKQQPGSGLEWIGWIYPEHGNTKYNQKFDGKATLTADKSSSTAYMQLSSLTSGDSAVYFCARQSSQGAYAMDAWGQGTSVTVSS VL: DIQMTQSPVSLSASLGQTVSIECLTSEGIPIDLAWYQQKSGKSPQLLIYAASRSQDGVPSRFSGSGSGTRYSLKISGMQPEDEADYFCQQTYKYPFTFGSGTRLEIK | 1910 pM
12 | RNF43-86 (antibody, V domains shown, Rat clone; VH/VL only) VH: EVQLVESGGGLVQPGRSLKLSCAASGFTFTNYYMAWVRQAPTKGLEWVASISPSGDTTYYPDSVKGRFTVSRDNAKSTQYLQMDNLRSEDTATYYCARDAYTYYGYKGWYFDFWGPGTMVTVSS VL: QFVLTQPNSVSTNLGSAVKLSCKRSTDDIGSNYVNWYQQHEGRSPTTMIYRDDKRPDGVPDRFSGSIDRSSNSALLTINNVQTEDEADYFCQSYSSGIYIFGGGTKLTVL | 17300 pM
13 | RNF43-53 (antibody, V domains shown, Rat clone; VH/VL only) VH: EVQLVESGGGLVQPGRSLKLSCGASGFSFSTYYMVWVRQAPTKGLEWVASISPNGGNTYYPDSVKGRFTISRDNAKSTQYLQMDSLRSEDTATYYCATDGSYYYDGYRWLAYWGQGTLVTVSS VL: QFVLTQPNSVSTNLGSTVKLSCKRSTGNIGSNYVSWYQQHEGRSPTTLIYRDDKRPDGVPDRFSGSIDRSSNSALLTINNVQTEDEAGYFCQSFSSGLFIFGGGTKLTVL | 3300 pM
14 | RNF43-80 (antibody, V domains shown, Rat clone; VH/VL only) VH: EVQLVESGGGLVQPGRSLKVSCLASGFNFGDFGMNWIRQAPGKGLEWVSYISSTSGTIYYADTVKGRFTISRDNAKNTLYLQLSSLRSEDTALYYCARPAGRYFDYWGQGVLVTVSS VL: DIVMTQSPSSLAVSAGETVTIDCKSNQSLLYSGNQKNYLAWYQQKPGQSPKLLIYWTSTRQSGVPDRFIGSGSGTEFTLTISSVQAEDLAIYYCQQYYHTPFTFGSGTKLEIK | 480 pM
15 | RNF43-181 (antibody, V domains shown, Rat clone; VH/VL only) VH: QIQLQQSGAELVKPGSSVKISCKSSAYRFTSNFIHWIRQQPGNGLEWIGWIYPGDGDAENNQKFNGKVILTADKSSSTAYMQLSSLTSEDSAVYFCARGVMTSLWYFDFWGPGTMVTVSS VL: DVQMTQSPYNLAASPGESVSINCKASKSISKYLAWYQQKPGKTNKLLIYDGSTLQSGIPSRFSGSGSGTDFTLTIRSLEPEDFGLYYCQQHHEQPPTFGSGTKLEIK | 85.9 pM
16 | RNF43-196 (antibody, V domains shown, Rat clone; VH/VL only) VH: QVQLQQSGAELVKPGSSVKISCKASGFTFTSNFMHWIKQQPGNGLEWIGWIYPGDGDTDYNQKFNGKATLTADKSSSTAYMELSSLTSEDSAVYFCARAYYGSYWYFDFWGPGTKVTVSS VL: DVQMTQSPHNLAASPGESVSINCKASKSISKYLAWYQQKPGKVKKLLIYGGSTLQSGIPSRFSGSGSGTDFTLTISSLEPEDFGLYYCQQHNEYPPTFGGGTRLELQ | 114 pM
17 | RNF43-38 (antibody, V domains shown, Rat clone; VH/VL only) VH: EVQLVESGGGLVQPGTSLKISCVASGFTFSDYWMSWVRQTPGKTMEWIGDIKSDGSYTNYAPSLKNRFTISRDNAKSTLYLQMNNVRSEDTATYYCTRDAYRYNYVHYGLDAWGQGASVTVSS VL: QFVLTQPNSVSANLGSTVKLSCNRSTGNIGSNYVSWYQQHEGRSPTTMLYRDGKRPDGIPDRFSGSIDGSSNSALLTINNVQTEDEADYFCQSYSSGIKYIFGGGTKLTVL | 4930 pM and 8660 pM
18 | RNF43-56 (antibody, V domains shown, Rat clone; VH/VL only) VH: EVQLVESGGGLVQPGTSLKISCVASGFTFSDYWMSWVRQTPGRTMEWIGDIKYDGSYTNYAPSLKNRFTISRDNAKSILYLQMNNVRSEDTATYYCTRDAYGYNYVHYGLDAWGQGASVTVSS VL: QFVLTQPNSVSSNLGSTVKLSCNRSTGNIGSNYVSWYQQHEGRSPTTMIYRDDKRPDGIPDRFSGSIDGSSNSALLTINNVQTEDEADYFCQSYSSDIKYIFGGGTKLTVL | 1840 pM
19 | RNF43-177 (antibody, V domains shown, Rat clone; VH/VL only) VH: QVKLLQSGAALVKPGDSAKMSCKASGYTFTDSIIHWVKQSHGKSLEWIGYINPYSGGIQYNEKFKNKATLTVDKSSSTAYVEFSRLTSEDSAIYYCAREIRGMDAWGQGTSVTVSS VL: DIVLTQSPATLSVTPGESVSLSCRASQGISTSLHWYQQKSTESPRLLIKYASQSVSGIPSRFSGSGSGTDFTLSINRVESEDFSVYYCQQSYNLPRTFGPGTKLELK | 6470 pM
